Measurements: US6329500A, “Transforming growth factor-β binding site” (University of Virginia Patent Foundation, priority 1999, dated 2001)
Where two headings read alike, the source gives them in different places. Blank lines part the entries; values can stand above or below the substance they belong to.

Legend:
[1] = molecular target: T1, 125I-TGF-β1 binding to immobilized FP3 (Homo sapiens, UniProt P01023+P01137); experiment: Competition for 125I-TGF-β1 binding to PVDF-immobilized FP3; conditions: unlabeled TGF-β1 0.2 μM
T1 construct: corresponding to amino acids 614-797 and 798-1082, respectively; made in house
Experimental: (§1) To block free sulfhydryls, some samples were treated with 5 mM IAM for 2 h at 25° C. Equivalent amounts of each protein ([…]) were subjected to SDS-PAGE on 10% slabs. IAM-treated GST-α2 M-peptide fusion proteins were subjected to SDS-PAGE as well. All samples were electro-transferred to PVDF membranes. The membranes were blocked with 5% milk and 0.1% Tween 20 in PBS for 12 h at 4° C. and then rinsed with 0.1% Tween 20 in PBS (PBS-T). […] Biophys. Res. Commun. […] NGF-β was radioiodinated with Iodogen, to a specific activity of 2-5 μCi/μg, using the method recommended by the manufacturer. […] After washing the membranes with PBS-T, bound radioligands were detected by Phosphorlmager analysis.

FBHE cells = experiment: Endothelial cell proliferation assay, TGF-β alone; type: cell-based, bovine; conditions: TGF-β 10 pM, 1 h pulse
Experimental: Fetal bovine heart endothelial (FBHE) cells were cultured in DMEM supplemented with 10% FBS, 20 ng/ml acidic fibroblast growth factor, and 80 ng/ml basic fibroblast growth factor and passaged at subconfluence with trypsin-EDTA. To perform proliferation assays, the cells were plated at a density of 2×10^4 /well (24 well plates) in DMEM supplemented with 0.2% FBS. […] The fusion proteins were preincubated with the TGF-β for 15 min prior to addition to the cultures. At the completion of an incubation, the cultures were washed 3 times with serum-free DMEM and then allowed to incubate in DMEM with 0.2% FBS for 30 h. [^3 H]Thymidine was added for an additional 18 h; the cells were then harvested and [^3 H]thymidine incorporation was quantitated.

TGF-β1 [2] = molecular target: T2, TGF-β1 (Homo sapiens, UniProt P01137); conditions: previously reported in references 31 and 33; mean ± S.E., n=4; read-out: IC50, 125I-TGF-β1 binding to immobilized α2M-MA; cited from earlier work
T2 construct: purchased R&D Systems (Minneapolis, Minn.)

TGF-β1 [3] = molecular target: T2, TGF-β1; experiment: 125I-TGF-β1 binding to immobilized α2M-MA, solution-phase competition; conditions: mean ± S.E., n=4; 1 h at 22° C.
Experimental: The wells were washed three times with PBS-T and blocked with PBS-T for 16 h at 4° C. […] In the presence of a fusion protein (FP) which binds TGF-β, the total concentration of TGF-β [βT ] was related to [βF ], at equilibrium, as follows: [βT ]=[βF ](1+[FP]/KI).

TGF-β2 [4] = molecular target: T3, TGF-β2 (Homo sapiens, UniProt P61812); experiment: Ligand blot analysis of 125I-TGF-β2 binding to PVDF-immobilized proteins; conditions: SDS-PAGE, PVDF membrane, 125I-TGF-β2 20 pM, 2 h at 25° C.
T3 construct: purchased Genzyme (Cambridge, Mass.)
T3 sequence (P61812 303-414 limits assumed): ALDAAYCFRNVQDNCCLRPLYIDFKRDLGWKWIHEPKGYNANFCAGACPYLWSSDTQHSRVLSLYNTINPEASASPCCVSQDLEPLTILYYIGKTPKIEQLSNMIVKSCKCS
Experimental: as §1

TGF-β1 [5] = molecular target: T2, TGF-β1; experiment: Ligand blot analysis of 125I-TGF-β1 binding to PVDF-immobilized proteins; conditions: SDS-PAGE, PVDF membrane, 125I-TGF-β1, 2 h at 25° C.
Experimental: as §1

NGF-β = molecular target: T4, NGF-β (Mus musculus, UniProt P01139); experiment: Ligand blot analysis of 125I-NGF-β binding to PVDF-immobilized proteins; conditions: SDS-PAGE, PVDF membrane, 125I-NGF-β 50 pM, 2 h at 25° C.
T4 construct: from tissue; host or cells: male mouse submaxillary glands
Experimental: as §1

TGF-β2 [6] = molecular target: T3, TGF-β2; conditions: read-out: KD for the binding of TGF-β2; cited from earlier work
TGF-β2 [7] = molecular target: T3, TGF-β2; conditions: previously reported in references 31 and 33; mean ± S.E., n=4; read-out: IC50, 125I-TGF-β2 binding to immobilized α2M-MA; cited from earlier work

T2 sequence (P01137 279-390 limits assumed, species assumed): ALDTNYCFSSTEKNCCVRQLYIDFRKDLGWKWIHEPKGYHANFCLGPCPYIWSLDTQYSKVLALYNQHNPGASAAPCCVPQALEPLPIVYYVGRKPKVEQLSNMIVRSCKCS
T4 sequence (P01139 122-239 limits assumed): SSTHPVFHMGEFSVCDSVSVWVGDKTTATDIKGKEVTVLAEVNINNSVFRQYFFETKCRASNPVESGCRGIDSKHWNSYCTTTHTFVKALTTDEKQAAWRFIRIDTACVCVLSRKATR
T1 sequence (P01023 with tags, fused parts or gaps limits assumed): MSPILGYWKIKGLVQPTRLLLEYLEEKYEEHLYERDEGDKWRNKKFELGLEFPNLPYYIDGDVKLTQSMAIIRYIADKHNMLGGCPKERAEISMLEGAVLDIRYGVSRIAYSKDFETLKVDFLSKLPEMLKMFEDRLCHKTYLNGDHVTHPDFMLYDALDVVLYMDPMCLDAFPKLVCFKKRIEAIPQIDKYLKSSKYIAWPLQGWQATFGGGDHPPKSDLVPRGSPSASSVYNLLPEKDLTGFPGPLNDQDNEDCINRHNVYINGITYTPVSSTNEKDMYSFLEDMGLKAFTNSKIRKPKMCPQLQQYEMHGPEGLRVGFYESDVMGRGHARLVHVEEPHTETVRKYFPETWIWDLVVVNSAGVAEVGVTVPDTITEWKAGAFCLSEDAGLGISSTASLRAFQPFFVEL
T1 sequence (P01137 279-390 limits assumed): as the sequence (P01137 279-390 limits assumed, species assumed) above

Inhibition of 125I-TGF-β1 binding to immobilized FP3 [1]: 72±8%
Substance: TGF-β1: transforming growth factor-β1 from R&D Systems
Decrease of [3H]thymidine incorporation (FBHE cells): 69%

Substance: Thrombospondin: solution-phase inhibitor of TGF-β binding to immobilized α2M-MA [reference compound]
IC50 (TGF-β1 [2]): 160 ± 18 nM

IC50 (TGF-β1 [3]): 360 ± 48 nM
Substance: α2 M monomer: prepared by exposing native α2M to 2 mM DTT under non-denaturing conditions

125I-TGF-β2 binding, ligand blot (TGF-β2 [4]): bound
125I-TGF-β1 binding, ligand blot (TGF-β1 [5]): bound
125I-NGF-β binding, ligand blot (NGF-β): bound
Substance: α2 M: Human α2-macroglobulin, 718-kDa homotetrameric glycoprotein purified from plasma
Kd (TGF-β2 [6]): 10 nM
IC50 (TGF-β1 [2]): 520 ± 39 nM
IC50 (TGF-β2 [7]): 19 ± 3 nM
